{"source": "paper PMC4503747", "about": "“The Gcn2 Regulator Yih1 Interacts with the Cyclin Dependent Kinase Cdc28 and Promotes Cell Cycle Progression through G2/M in Budding Yeast” (PLoS ONE, 2015)", "binders": {"B1": {"name": "Cdc28 (endogenous, yeast whole cell extract) (natural protein)", "chain": "not shown", "notes": "Cdc28, cyclin-dependent kinase of S. cerevisiae, endogenous; In the extract Cdc28 may be in complexes with cyclins and other regulators; also called endogenous Cdc28; native Cdc28; source: endogenous, S. cerevisiae whole cell extract"}}, "biological_target": "T1, GST-Yih1*H2 (E87A and D90A in helix H2 of the RWD domain) (S. cerevisiae, UniProt P25637 1-258, E87A | D90A)", "T1 construct": "Yih1, S. cerevisiae, with alanine substitutions of Glu-87 and Asp-90;; source: S. cerevisiae yih1Δ strain MSY-Y2, galactose-inducible promoter, in whole cell extract", "T1 sequence (looked up)": "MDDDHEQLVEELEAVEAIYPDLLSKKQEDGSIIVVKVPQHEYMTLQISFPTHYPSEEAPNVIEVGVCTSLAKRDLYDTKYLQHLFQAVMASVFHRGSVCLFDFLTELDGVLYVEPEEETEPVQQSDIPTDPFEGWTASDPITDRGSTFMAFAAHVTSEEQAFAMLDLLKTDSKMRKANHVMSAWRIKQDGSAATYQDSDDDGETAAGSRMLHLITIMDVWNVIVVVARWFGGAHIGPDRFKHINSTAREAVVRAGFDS", "assay": "pull-down; in vivo GST pull-down: GST fusions overexpressed in yeast from a galactose-inducible promoter (yih1Δ strains; gcn1Δ strain H2556 for the fragments; also cells arrested in G1 with α-factor and released), WCE (1-2 mg) on glutathione beads, immunoblot for endogenous proteins", "details": "partners not purified", "data": [{"binder": "B1", "values": [{"measurement": "fold increase of co-precipitated Cdc28 against wild type GST-Yih1", "value": "~5", "unit": "fold"}]}]}
